Assay type: physicochemical
Method: The lipophilicity was determined using the shake-flask method (logP) and qualitatively by radio-HPLC relative to ^68Ga-DOTATOC (Notni et al. [2013]; Du et al. [1998]). Radiolabels were prepared following acetone-PP. Analytical radio-HPLC (LiChrospher 100-RP-18EC, 1 mL/min) for lipophilicity studies was based on a gradient using H2O (A) and MeCN (B), each containing 0.1 % TFA. Mobile phase gradient: 0–1.5 min 1 % B, 1.5–10.5 min 99 % B, 11.5 min 99 % B, 12–15 min 1 % B. The HPLC was coupled to a UV (Hitachi L-7400) and a radioactivity (Gamma Raytest) detection system. HPLC grade solvents were used and degassed by sonication for 15–20 min prior to use.

## C[C@@H](O)[C@@H]1NC(=O)[C@H](CCCCN)NC(=O)[C@@H](Cc2c[nH]c3ccccc23)NC(=O)[C@H](Cc2ccc(O)cc2)NC(=O)[C@@H](NC(=O)[C@@H](Cc2ccccc2)NC(=O)CN2CCN(CC(=O)O)CCN(CC(=O)O)CCN(CC(=O)O)CC2)CSSC[C@@H](C(=O)N[C@H](CO)[C@@H](C)O)NC1=O [^68Ga-DOTATOC, metal not drawn]
  radio-HPLC retention time (tR) as measure of lipophilicity: 10.3 min

— article PMC5843802, “DATATOC: a novel conjugate for kit-type ^68Ga labelling of TOC at ambient temperature” (EJNMMI Radiopharmacy and Chemistry, 2016)
